Results published in publication PMC11870076, “Multiple carbamylation events are required for differential modulation of Cx26 hemichannels and gap junctions by CO2” (The Journal of Physiology, 2025).

Molecular target: the molecule itself
Experiment: cryo-EM structure; GgCx26 in 0.03% DDM, 90 mmHg PCO2 aCSF buffer gassed with 15% CO2 to pH ~7.4, 3.4 mg/ml; reconstructions with D6 and C6 symmetry

B1: chicken connexin 26 (GgCx26) gap junction channel (natural protein)
chain: not shown
notes: DNA encoding GgCx26 lacking a stop codon was amplified from a GgCx26-mCherry construct, forward primer at the start ATG; in the model residues before Val9, 106-124 and after Leu215 are not built; Dodecameric gap junction channel (two docked hexamers); thrombin-cleavable C-terminal His6 tag removed with thrombin before SEC; also called chicken Cx26; Chicken (Gallus gallus) Cx26; source: Sf9 cells …
- stoichiometry N: 12 subunits
